Publication doi:10.1101/2023.12.18.572097

Columns and labels:
[1] = molecular target: E. coli type I Zorya ZorA, wild type (EcZorA) (E. coli); assay: cryo-EM structure
[2] = molecular target: E. coli type I Zorya ZorB, wild type (EcZorB) (E. coli); assay: cryo-EM structure

Row | Substance | stoichiometry N [1] | stoichiometry N [2]
1 | E. coli type I Zorya ZorA, wild type (EcZorA) (natural protein) | 5 | –
2 | E. coli type I Zorya ZorB, wild type (EcZorB) (natural protein) | – | 2
